Patent publication US20130109846A1 (published 2013)

These binders were tested against human CD28 (human, UniProt P10747 19-220) (assay: cell-based or functional assay).

Luciferase assay (EC50) | MLR assay (EC50) | Binder
3 nM | 8 nM | 1h-99-246 (other) VH: EVQLLESGGGLVQPGGSLRLSCAASGFTFDSANMSWARQAPGKGLEWVSWIEASGGQTFYADSVKGRFTISRDNSKNTLYLQMNSLRAEDTAVYYCAKSPFGPLYGFDYRGQGTLVTVSS
3 nM | 2 nM | 1h-99-2112 (other) VH: EVQLLESGGGLVQPGGSLRLSCAASGFTFKDKNMSWARQAPGKGLEWVSWIEAPGVQTFYADSVRGRFTISRDNSKNTLYLQMNSLRAEDTAVYYCARSPFGPLYGFDYRGQGTLVTVSS
4 nM | 8 nM | 1h-99-243 (other) VH: EVQLLESGGGLVQPGGSLRLSCAASGFTFDSANMSWGRQAPGKGLEWVSWIEASGVQTFYADSVKGRFTISRDNSKNTLYLQMNSLRAEDTAVYYCAKSPFGPLYGFDYRGQGTLVTVSS
21 nM | 14 nM | 1h-99-236 (other) VH: EVQLLESGGGLVQPGGSLRLSCAASGFTFDSANMSWVRQAPGKGLEWVSWIEAPGKQTFYADSVKGRFTISRDNSKNTLYLQMNSLRAEDTAVYYCAKSPFGPLYGFDYRGRGTLVTVSS
17 nM | 22 nM | 1h-99-241 (other) VH: EVQLLESGGGLVQPGGSLRLSCAASGFTFDSANMSWVRQAPGKGLEWVSWIENNGPQTFYADSVKGRFTISRDDSKNTLYLQMNSLRAEDTAVYYCAKSPFGPLYGFDYRGQGTLVTVSS
3 nM | 12 nM | 1h-99-2115 (other) VH: EVQLLESGGGLVQPGGSLRLSCAASGFTFKDKNMSWVRQAPGKGLEWVSWIEAPGVQTFYADSVRGRFTISRDNSKNTLYLQMNSLRAEDTAVYYCARSPFGPLYGFDYRGQGTLVTVSS
6 nM | 11 nM | 1h-99-249 (other) VH: EVQLLESGGGLVQPGGSLRLSCAASGFTFDSANMSWVRQAPGKGLEWVSWIEDIGVQTFYADSVKGRFTISRDNSKNTLYLQMNSLRAEDTAVYYCAKSPFGPLYGFDYRGQGTLVTVSS
5 nM | 4 nM | 1h-99-2116 (other) VH: EVQLLESGGGLVQPGGSLRLSCAASGFTFKDKNMSWVRQAPGKGLEWVSWIEASGVQTFYADSVKGRFTISRDNSKNTLYLQMNSLRAEDTAVYYCAKSPFGPLYGFDYRGQGTLVTVSS
6 nM | 11 nM | 1h-99-245 (other) VH: EVQLLESGGGLVQPGGSLRLSCAASGFTFDSANMSWARQAPGKGLEWVSWIEASGFQTFYADSVKGRFTISRDNSKNTLYLQMNSLRAEDTAVYYCAKSPFGPLYGFDYRGQGTLVTVSS
5 nM | 3 nM | 1h-99-2113 (other) VH: EVQLLESGGGLVQPGGSLRLSCAASGFTFKDKNMSWARQAPGKGLEWVSWIEASGVQTFYADSVKGRFTISRDNSKNTLYLQMNSLRAEDTAVYYCAKSPFGPLYGFDYRGQGTLVTVSS
4 nM | 2 nM | 1h-99-2114 (other) VH: EVQLLESGGGLVQPGGSLRLSCAASGFTFKDKNMSWARQAPGKGLEWVSWIEAIGVQTFYADSVKGRFTISRDNSKNTLYLQMNSLRAEDTAVYYCAKSPFGPLYGFDYRGQGTLVTVSS

More lines, now with the values behind:

Binder | Luciferase assay (EC50) | MLR assay (EC50)
1h-31 (other) VL: DIQMTQSPSSLSASVGDRVTITCRASQSIGYSLAWYQQKPGKAPKLLIYWVSSLQSGVPSRFSGSGSGTDFTLTISSLQPEDFATYYCQQTQRTPFTFGQGTKVEIKR | 800 nM | –
1h-32 (other) VL: DIQMTQSPSSLSASVGDRVTITCRASQNIGHGLAWYQQKPGKAPKLLIYWVSLLQSGVPSRFSGSGSGTDFTLTISSLQPEDFATYYCQQTLSKPFTFGQGTKVEIKR | 4500 nM | –
1h-34 (other) VL: DIQMTQSPSSLSASVGDRVTITCRASQYIGTSLAWYQQKPGKAPKLLIYHSSGLQSGVPLRFSGSGSGTDFTLTISSLQPEDFATYYCQQTALRPFTFGQGTKVEIKR | 2900 nM | –
1h-33 (other) VL: DIQMTQSPSSLSASVGDRVTITCRASSNIHNRLNWYQQKPGKAPKLLIYAASSLQSGVPSRFSGSGSGTDFTLTISSLQPEDFATYYCRQWIQPPWTFGQGTKVEIKR | 1600 nM | –
1h-35 (other) VL: DIQMTQSPSSLSASVGDRVTITCRASQYIGSALSWYQQKPGKAPKLLIYRASNLQSGVPSRFSGSGSGTDFTLTISSLQPEDFATYYCQQLAIRPFTFGQGTKVEIKR | 1900 nM | 2000 nM
1h-99-1 (other) VH: EVQLLESGGGLVQPGGSLRLSCAASGFTFDSANMTWVRQAPGKGLEWVSWIEDTGTQTFYADSVRGRFTISRDNFKNTLYLQMNSLRAEDTAVYYCAKSPFGPLYGFDYRGQGTLVTVSS | 15 nM | 19 nM
1h-99-230 (other) VH: EVQLLESGGGLVQPGGSLRLSCAASGFTFDSANMSWVRQAPGKGLEWVSWIESIGVQTFYADSVKGRFTISRDNSKNTLYLQMNSLRAEDTAVYYCAKSPFGPLYGFDYRGQGTLVTVSS | 9 nM | 14 nM
1h-99-222 (other) VH: EVQLLESGGGLVQPGGSLRLSCAASGFTFQRSNMSWVRQAPGKGLEWVSWIEDTGTQTFYADSVKGRFTISRDNSKNTLYLQMNSLRAEDTAVYYCAKSPFGPLYGFDYRGQGTLVTVSS | 16 nM | 28 nM
1h-99-226 (other) VH: EVQLLESGGGLVQPGGSLRLSCAASGFTFKSANMSWVRQAPGKGLEWVSWIEDTGTQTFYADSVKGRFTISRDNSKNTLYLQMNSLRAEDTAVYYCAKSPFGPLYGFDYRGQGTLVTVSS | 10 nM | 23 nM
1h-99-203 (other) VH: EVQLLESGGGLVQPGGSLRLSCAASGFTFYKANMSWARQAPGKGLEWVSWIEDTGTQTFYADSVKGRFTISRDNSKNTLYLQMNSLRAEDTAVYYCAKSPFGPLYGFDYRGQGTLVTVSS | 8 nM | 10 nM
1h-99-228 (other) VH: EVQLLESGGGLVQPGGSLRLSCAASGFTFHRANMSWVRQAPGKGLEWVSWIEDTGTQTFYADSVKGRFTISRDNSKNTLYLQMNSLRAEDTAVYYCAKSPFGPLYGSDYRGQGTLVTVSS | 12 nM | 46 nM
1h-99-221 (other) VH: EVQLLESGGGLVQPGGSLRLSCAASGFTFARSNMSWVRQAPGKGLEWVSWIEDTGTQTFYADSVKGRFTISRDNSKNTLYLQMNSLRAEDTAVYYCAKSPFGPLYGFDYRGQGTLVTVSS | 12 nM | 17 nM
1h-99-227 (other) VH: EVQLLESGGGLVQPGGSLRLSCAASGFTFNHANMSWVRQAPGKGLEWVSWIEDTGTQTFYADSVKGRFTISRDNYKNTLYLQMNSLRAEDTAVYYCAKSPFGPLYGFDYRGQGTLVTVSS | 18 nM | 33 nM
1h-99-217 (other) VH: EVQLLESGGGLVQPGGSLRLSCAASGFTFSRSNMSWGRQAPGKGLEWVSWIEDTGTQTFYADSVKGRFTISRDNSKNTLYLQMNSLRAEDTAVYYCAKSPFGPLYGFDYRGQGTLVTVSS | 12 nM | 15 nM
1h-99-229 (other) VH: EVQLLESGGGLVQPGGSLRLSCAASGFTFARTNMSWARQAPGKGLEWVSWIEDTGTQTFYADSVKGRFTISRDNSKNTLYLQMNSLRAEDTAVYYCAKSPFGPLYGFDYRGQGTLVTVSS | 15 nM | 24 nM
1h-99-218 (other) VH: EVQLLESGGGLVQPGGSLRLSCAASGFTFDKSNMSWARQAPGKGLEWVSWIEDTGTQTFYADSVKGRFTISRDNSKNTLYLQMNSLRAEDTAVYYCAKSPFGPLYGFDYRGQGTLVTVSS | 10 nM | 12 nM
1h-99-201 (other) VH: EVQLLESGGGLVQPGGSLRLSCAASGFTFHRWNMSWARQAPGKGLEWVSWIEDTGTQTFYADSVKGRFTISRDNSKNTLYLQMNSLRAEDTAVYYCAKSPFGPLYGFDYRGQGTLVTVSS | 14 nM | 18 nM
1h-99-224 (other) VH: EVQLLESGGGLVQPGGSLRLSCAASGFTFSHNNMSWVRQAPGKGLEWVSWIEDTGTQTFYADSVKGRFTISRDNSKNTLYLQMNSLRAEDTAVYYCAKSPFGPLYGFDYRGQGTLVTVSS | 15 nM | 28 nM
1h-99-225 (other) VH: EVQLLESGGGLVQPGGSLRLSCAASGFTFRLQNMSWVRQAPGKGLEWVSWIEDTGTQTFYADSVKGRFTISRDNSKNTLYLQMNSLRAEDTAVYYCAKSPFGPLYGFDYRGQGTLVTVSS | 14 nM | 28 nM
1h-99-220 (other) VH: EVQLLESGGGLVQPGGSLRLSCAASGFTFYRSNMSWVRQAPGKGLEWVSWIEDTGTQTFYADSVKGRFTISRDNSKNTLYLQMNSLRAEDTAVYYCAKSPFGPLYGFDYRGQGTLVTVSS | 10 nM | 12 nM
